T1: Biotinylated Recombinant human BAFFR Protein (Kactus, BAF-HM40RB) (human, UniProt Q96RJ3 7-71, limits assumed, biotinylated)
T1 construct: Non-related control antigen; also called Kactus-BAFFR-his-Bio; not shown: his tag
T1 sequence (looked up): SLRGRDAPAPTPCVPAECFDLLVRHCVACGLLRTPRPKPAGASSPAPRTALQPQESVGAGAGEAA

T2: Recombinant biotinylated Human CD19 Protein-Fc (Kactus, CD2-HE121) (human, UniProt P15391 20-291, biotinylated)
T2 construct: Control antigen; also called CD19-Fc-Bio; Kactus-CD19-FC-Bio; not shown: Fc tag
T2 sequence (looked up): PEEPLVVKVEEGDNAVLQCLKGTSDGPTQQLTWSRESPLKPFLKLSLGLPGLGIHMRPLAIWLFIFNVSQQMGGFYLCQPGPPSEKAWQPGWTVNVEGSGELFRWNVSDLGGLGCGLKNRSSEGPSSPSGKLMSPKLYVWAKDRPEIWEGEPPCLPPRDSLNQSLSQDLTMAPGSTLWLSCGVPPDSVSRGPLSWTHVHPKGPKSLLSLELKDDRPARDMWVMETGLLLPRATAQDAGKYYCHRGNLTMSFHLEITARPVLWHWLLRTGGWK

T3: human CD5 on the cell surface (human, UniProt P06127 25-495)
T3 construct: whole, on cells; One molecule for CD5 on all cell lines; also called natural CD5 on the cell membrane; CD5 antigen on Jurkat, CCRF-CEM, MOLT4 cells
T3 sequence (looked up): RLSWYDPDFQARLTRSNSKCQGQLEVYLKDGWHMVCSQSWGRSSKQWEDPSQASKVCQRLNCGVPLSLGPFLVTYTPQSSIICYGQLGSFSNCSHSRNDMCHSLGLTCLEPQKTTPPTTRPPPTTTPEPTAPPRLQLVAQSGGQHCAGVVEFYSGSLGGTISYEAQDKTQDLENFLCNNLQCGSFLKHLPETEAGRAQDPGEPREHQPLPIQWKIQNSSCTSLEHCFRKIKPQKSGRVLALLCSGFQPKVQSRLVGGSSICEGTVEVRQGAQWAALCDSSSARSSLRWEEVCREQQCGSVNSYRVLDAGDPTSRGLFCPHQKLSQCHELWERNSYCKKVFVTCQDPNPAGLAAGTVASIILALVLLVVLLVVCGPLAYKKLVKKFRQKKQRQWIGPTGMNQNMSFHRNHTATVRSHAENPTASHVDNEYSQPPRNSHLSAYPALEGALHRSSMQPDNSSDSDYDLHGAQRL

T4: CD5 antigen (Octet affinity determination, Example 8) (UniProt P06127 25-372, limits assumed)
T4 sequence (looked up): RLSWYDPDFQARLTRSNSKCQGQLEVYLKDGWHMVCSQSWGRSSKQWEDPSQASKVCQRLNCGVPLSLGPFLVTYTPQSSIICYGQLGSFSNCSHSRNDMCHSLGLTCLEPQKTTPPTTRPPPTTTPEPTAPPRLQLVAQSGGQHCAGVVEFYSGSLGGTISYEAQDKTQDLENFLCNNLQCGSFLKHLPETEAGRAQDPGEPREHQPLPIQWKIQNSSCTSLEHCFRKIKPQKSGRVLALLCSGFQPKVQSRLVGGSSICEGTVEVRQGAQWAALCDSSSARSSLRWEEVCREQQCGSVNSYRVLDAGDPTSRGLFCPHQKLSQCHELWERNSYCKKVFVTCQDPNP


Legend:
[1] = target: T1, Biotinylated Recombinant human BAFFR …; assay: phage ELISA
[2] = target: T2, Recombinant biotinylated Human CD19 …; assay: phage ELISA
[3] = target: T5, Streptavidin (Pierce, 21125) (UniProt P22629 37-163, limits assumed); assay: phage ELISA
T5 construct: Non-related control antigen; also called SA

[4] = target: T3, human CD5 on the cell surface; assay: phage FACS on Jurkat cells (CD5 positive), anti-M13 + FITC anti-mouse IgG, median of FITC-A
[5] = target: T3, human CD5 on the cell surface; assay: phage FACS on CCRF-CEM cells (CD5 positive), anti-M13 + FITC anti-mouse IgG, median of FITC-A
[6] = target: T4, CD5 antigen (Octet affinity …); assay: BLI (Octet), IgG loaded on the biosensor, CD5 antigen 400 to 12.5 nM, 1:1 model

T5 sequence (P22629 37-163 limits assumed): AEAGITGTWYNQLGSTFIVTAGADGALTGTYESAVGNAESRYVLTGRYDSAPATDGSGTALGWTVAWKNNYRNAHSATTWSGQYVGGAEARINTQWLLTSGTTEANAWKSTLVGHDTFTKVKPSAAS

| Binder | binding result [1] | binding result [2] | binding result [3] | Median (B1-A) [4] | Median (B1-A) [5] | Kd [6] [nM] | koff [6] [s⁻¹] | kon [6] [M⁻¹ s⁻¹] |
| --- | --- | --- | --- | --- | --- | --- | --- | --- |
| phage monoclone #9 (scFv, also called scFv9) scFv: QPVLTQPPSVSGSPGQSVTISCTGTSDDIGNYKRVSWYQQPPGTAPKLMIYEVTNRPPGVPNRFSGSKSGNTASLTISGLQAEDEADYYCSSYASGDTYVFGTGTKVTVLGSRGGGGSGGGGSGGGGSLEQVQLVQSGAEVEKPGASVKISCKASTYTFTNYYIHWVRQAPGQGLEWMGMINPSGDTTSYAQKFQGRVTMTRDTSTSTVYMELSSLRSEDTAVYYCARLSWYWGGSFDDWGQGTLVTVSS | no binding | no binding | no binding | 12.8 | 3.37 | – | – | – |
| Clone 35 anti-CD5 IgG (antibody, V domains shown, The VH entry as printed begins with MA carried over from the scFv) VH: QVQLVESGGGLVQPGGSLRLSCAASGFTFSSYAMSWVRQTPGKGLEWVSTITDSGDITYYTASVQGRFTISRDNSKNTLYLQMNSLRAEDTAVYYCARMSSHWYFSADYWGQGTLVTVSS VL: QSVLTQPPSVSAAPGQKVTISCSGSSSNIGNNYVSWYQQLPGTAPKLLIYDNNKRPSGIPDRFSGSKSGTSATLGITGLQTGDEADYYCGTWDSSLSAVVFGGGTKLTVLG | – | – | – | – | – | 13.6 | 0.000382 | 28100 |
| Clone 32 anti-CD5 IgG (antibody, V domains shown) VH: QVQLVESGGGLVKPGGSLRLSCAASGFTFSSYSMNWVRQAPGKGLEWVSSISSSSSYIYYADSVKGRFTISRDNAKNSLYLQMNSLRAEDTAVYYCARGNPWYGVDYWGQGTLVTVSS VL: QSVLTQPPSVSAAPGQKVTISCSGSNSNIGNNYVSWYQQLPGTAPKRLIYDNNKRPSGIPDRFSGSKSGTSATLGITGLQTGDEADYYCGIWDSSLDAYVFGTGTKVTVLG | – | – | – | – | – | 28.3 | 0.00217 | 76500 |
| H65 anti-CD5 IgG (antibody, V domains shown) VH: QIQLVQSGPELKKPGETVKISCKASGYTFTNYGMNWVKQAPGKGLRWMGWINTHTGEPTYADDFKGRFAFSLETSASTAYLQINNLKNEDTATYFCTRRGYDWYFDVWGAGTTVTVSS VL: DIKMTQSPSSMYASLGERVTITCKASQDINSYLSWFHHKPGKSPKTLIYRANRLVDGVPSRFSGSGSGQDYSLTISSLDYEDMGIYYCQQYDESPWTFGGGTKLEIK | – | – | – | – | – | 2.25 | 0.000813 | 361000 |
| phage monoclone #35 (scFv, also called scFv35) scFv: QSVLTQPPSVSAAPGQKVTISCSGSSSNIGNNYVSWYQQLPGTAPKLLIYDNNKRPSGIPDRFSGSKSGTSATLGITGLQTGDEADYYCGTWDSSLSAVVFGGGTKLTVLGSRGGGGSGGGGSGGGGSLEMAQVQLVESGGGLVQPGGSLRLSCAASGFTFSSYAMSWVRQTPGKGLEWVSTITDSGDITYYTASVQGRFTISRDNSKNTLYLQMNSLRAEDTAVYYCARMSSHWYFSADYWGQGTLVTVSS | no binding | no binding | no binding | – | – | – | – | – |
| Clone 10 anti-CD5 IgG (antibody, V domains shown) VH: EVQLLESGGGLVKPGGSLRLSCAASGFTFNNYTMNWVRQAPGKGLEWVSSISSSSSYIYYADSVKGRFTISRDNAKNSLFLQMNSLRGEDTAVYYCARYFSGSAGDYWGQGTLVTVSS VL: QSVVTQPPSVSGAPGQRVTISCTGSSSNIGAGYDVHWYQQLPGTAPKLLIYGNINRPSGVPDRFSGSKSGTSASLAITGLQAEDEADYYCGTWDNSLSAHYVFGTGTKVTVLG | – | – | – | – | – | 4.49 | 0.00143 | 318000 |
| phage monoclone #32 (scFv, also called scFv32) scFv: QVQLVESGGGLVKPGGSLRLSCAASGFTFSSYSMNWVRQAPGKGLEWVSSISSSSSYIYYADSVKGRFTISRDNAKNSLYLQMNSLRAEDTAVYYCARGNPWYGVDYWGQGTLVTVSSTSGGGGSGGGGSGGGGSELQSVLTQPPSVSAAPGQKVTISCSGSNSNIGNNYVSWYQQLPGTAPKRLIYDNNKRPSGIPDRFSGSKSGTSATLGITGLQTGDEADYYCGIWDSSLDAYVFGTGTKVTVLG | no binding | no binding | no binding | – | – | – | – | – |
| phage monoclone #7 (scFv, also called scFv7) scFv: QSVVTQPPSVSAAPGQKATISCSGSSSNIGNNDVSWYQQLPGTAPKLLIQDNDKRPSGIPDRFSGSKSGTSATLGITGLQTGDEADYYCAVWDSSLSAAVFGPGTKVTVLGSRGGGGSGGGGSGGGGSLEMAEVQLVQSGAEVKKPGESLKISCKGSGYSFTSYWIGWVRQMPGKGLEWMGIIYPDDSDTTYSPSFQGQVTMSVDKSISTAYLQWNSLQASDTAMYYCARMSLTSYLATDGWGQGTLVTVSS | no binding | no binding | no binding | 28.3 | 12.4 | – | – | – |
| phage monoclone #6 (scFv, also called scFv6) scFv: NFMLTQPHSVSESPGKTVTISCTGNSGSIARNYVQWYQQRPGSAPTMLIYEDNRRPSGVPDRFSGSIDSSSNSASLTISGLKTEDEADYYCQSYDDNTSWVFGGGTKLTVLGSRGGGGSGGGGSGGGGSLEMAEVQLVQSGAEVKKPGSSVKVSCKASGGTFSSNAITWVRQAPGQGLEWMGGIIPMFGTTDYAQKFQGRVTMTADESTSTAYMELRSLRSEDTAVYYCARDGGGRHPYYYYGMDVWGQGTTVTVSS | no binding | no binding | no binding | 71.8 | 1.71 | – | – | – |
| phage monoclone #10 (scFv, also called scFv10) scFv: QSVVTQPPSVSGAPGQRVTISCTGSSSNIGAGYDVHWYQQLPGTAPKLLIYGNINRPSGVPDRFSGSKSGTSASLAITGLQAEDEADYYCGTWDNSLSAHYVFGTGTKVTVLGSRGGGGSGGGGSGGGGSLEEVQLLESGGGLVKPGGSLRLSCAASGFTFNNYTMNWVRQAPGKGLEWVSSISSSSSYIYYADSVKGRFTISRDNAKNSLFLQMNSLRGEDTAVYYCARYFSGSAGDYWGQGTLVTVSS | no binding | no binding | no binding | 31.6 | 17.1 | – | – | – |

From patent publication US20240002505A1 (NANJING IASO BIOTECHNOLOGY, published 2024)
